Holding throughout (test): cell-based or functional assay
For one assay, the target named is MDC-4 (Crotalus atrox) (UniProt Q90282).
The target of assay [1] is whole C. atrox venom (SVMP proteolytic activity).
For assay [2] the target is unchanged. This is another data set of the same source.

“And” between values parts separate entries of the source, which are not always exact repeats. Identical values can stand only once.

Chain of UniProt Q90282 (Q90282 190-609 limits assumed): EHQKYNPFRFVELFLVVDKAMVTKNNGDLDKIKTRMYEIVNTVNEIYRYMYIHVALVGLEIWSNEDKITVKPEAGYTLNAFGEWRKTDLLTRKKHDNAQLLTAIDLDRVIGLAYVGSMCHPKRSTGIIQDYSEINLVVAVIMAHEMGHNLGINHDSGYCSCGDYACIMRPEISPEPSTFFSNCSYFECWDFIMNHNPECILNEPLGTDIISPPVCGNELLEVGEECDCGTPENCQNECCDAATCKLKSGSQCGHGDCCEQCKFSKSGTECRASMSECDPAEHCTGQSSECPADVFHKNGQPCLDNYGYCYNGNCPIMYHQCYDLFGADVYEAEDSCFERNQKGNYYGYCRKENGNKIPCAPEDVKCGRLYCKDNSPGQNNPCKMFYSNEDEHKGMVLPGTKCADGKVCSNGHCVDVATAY

In the assay with MDC-4 (Crotalus atrox), “CroFab antivenom (crotalidae polyvalent immune fab ovine)” registered an amount for ˜50% neutralization of 2 µg MDC-4 proteolysis of Azocoll of 12.1 µg and a weight of CroFab relative to FETUA-3 for ˜50% neutralization of MDC-4 of 16 fold. In assay [1], the weight of CroFab relative to FETUA-3 for approximately 50% neutralization of whole venom SVMP activity turned out to be 18 fold.

B1: C. atrox FETUA-5 (recombinant, tag-free) (protein)
chain: YMVREEDLNCNSKAAKYRADQAVRYINEHNLHGYKQALNIIKTIRLLPSDGLLVVIYLKLNLLETECHVLDPTPVENCTVRQQNNHAVETDCDVKVIYNIETFKDEFLVKCHSTPGSVEKILQDCPKCPILLSLSDPHVVDSVEYVLNKHNEQLSGHVYEVLEISRGQHKYEPEAFYVEFAIVEVNCTAQEAHDDHHHCHPNTAGENHIAFCRATVFRSYASLEKPKDEKFESDCVILHVKEGHAHSHLIEHHTGKHSTSPGHNSTVLNLAHSHNHTSASHESHSHEHVMEVPVAVANREDPTDIPHHHTPSVDGCPGKVLHFKL
Molecule B1 came in with an inhibition of whole venom proteolysis of Azocoll collagen substrate (10 µg venom) in assay [2] of 20 µg.

B2: C. atrox FETUA-3 (recombinant, tag-free) (protein)
chain: FQLAGNMDCNTKGTKDWADIGVRYINEHKLHGYKQALNIIKIFRLLPSDGRSVIFHFKLNLLETECHVLDPTPLENCTVRQQNNHAVEMDCNVRIIHDIATFEDEVFVKCNSTPDSVENVRRNCPKCPILLPPNDPHVIDSVEYVLNKHNEKLSGHIYEVLEISRGQHKYEPEAFYVEFAIVEVNCTAEEAHDDHHDCHPNTDGENHIGFCRATVFRSHASLEKPKEEMFESDCVILHVKKGHAYSHLIEHHVGKYNTSPGRNSTDECVVQCPVAFVNKEVPKDISDHDTPPVEGCPGKALHFQL
Take B2: the inhibition of whole venom proteolysis of Azocoll collagen substrate (10 µg venom) in assay [2] was 2.5 µg and 5 µg.

These data come from patent publication US20240190923A1.
